Measured values taken from the supplement of paper PMC12042874.
± gives the uncertainty stated by the source.

How the values were obtained:
[1] = amyloid nucleation score (Sup35N fusion, yeast selection) (log enrichment); library NNK1; higher = more nucleation; inactive = no reads after selection
Procedure, shortened: (§1)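 Peptides of 20 random codons fused to Sup35N were expressed in psi-negative yeast, induced 24 hours with 100 μM copper sulfate, then grown 7 days at 30°C on medium lacking adenine and uracil. Input and output plasmid inserts were Illumina-sequenced. Nucleation score is the DiMSum log enrichment of output over input reads, centred on the mode score of non-aggregating sequences, excluding sequences with under 100 input reads. Random libraries had three technical output replicates.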

[2] = amyloid nucleation score (Sup35N fusion, yeast selection) (log enrichment); library NNK2; higher = more nucleation; inactive = no reads after selection
Procedure, shortened: as §1

[3] = amyloid nucleation score (Sup35N fusion, yeast selection) (log enrichment); library NNK3; higher = more nucleation; inactive = no reads after selection
Procedure, shortened: as §1

Substance	amyloid nucleation score [1]	amyloid nucleation score [2]	other results
SYKGWVGLVLRVETDGNWSR	2.28 ± 0.13	–	–
YHGIPFCMFFRVYAVR	0.216 ± 1.4	–	–
VCGFWVWLYVGVYSSIPNSM	-0.015 ± 0.31	–	–
GCSVWDCWGLRVRSVGRSDR	0.449 ± 0.34	–	–
NLSSSRSVVKNLTFQMWNTS	4.45 ± 0.063	–	–
LIWSHVLDGYSCEKPSNRMC	-0.662 ± 0.98	–	–
HRRNMAKC	inactive	–	–
FLTLCVLNRLWH	4.85 ± 0.11	–	–
RCRPKVWACS	-0.102 ± 1	–	–
ITGFKFS	0.698 ± 0.3	–	–
LKEDISPSELHTQLC	0.81 ± 0.54	–	–
QFKFINVDEAHT	0.297 ± 1.2	–	–
TVAFSVTTVDR	-0.875 ± 2.4	–	–
IRMGCNVHREEVSFTVLAVH	0.409 ± 0.66	–	–
VRTYWTYANWIFMYKKRAQA	-1.85 ± 2.4	–	–
KMEPGPRAKALGTNRRFLLK	inactive	–	–
RLTCFRGLGNIYIELINMVN	-0.376 ± 0.23	–	–
DGCIKLWGF	0.779 ± 0.67	–	–
ELTNR	0.044 ± 0.39	–	–
SPTVERSTGIR	-0.089 ± 0.49	–	–
FFVLFEVYMVWFTEGFARLA	-0.733 ± 0.57	–	–

Substance	amyloid nucleation score [1]	amyloid nucleation score [2]	other results
YSLGVPSPRKILNVFGGTW	-0.101 ± 0.47	–	–
EPCVGNSNSCCVHC	-0.072 ± 0.53	–	–
LWLTHKCYCLDSNTCIKCEL	-0.312 ± 0.38	–	–
WLSETAAWENTYRCLRILHG	-0.446 ± 0.4	–	–
TDRMGIQCGRVSLRSRYIRC	-0.198 ± 0.87	–	–
AKSVYILVR	inactive	–	–
SSVILSDCSCFMVHQCWYLC	-2.13 ± 2.7	–	–
YGSLFED	0.108 ± 0.77	–	–
AFMYYTGATIMHLQSANGGL	2.27 ± 0.17	–	–
RMDSGIGDRSTGGDRTNGMW	-0.546 ± 0.53	–	–
GIAAYNGDLWMRLCYL	-0.255 ± 0.88	–	–
DGSVYTPVIVY	0.207 ± 0.29	–	–
IRELRSDFSGSMVDERFLGE	0.489 ± 1.1	–	–
MRIRAKSALSVSLECDLQFL	0.655 ± 0.3	–	–
GNNRCDVIIMVFFK	1.7 ± 0.12	–	–
TNVFGILYFEYFLVLDG	0.208 ± 0.3	–	–
THWGRVELMFFRSSKHRLT	-0.334 ± 1	–	–
MLLALVIEADRRRWSVNGMY	2.93 ± 0.18	–	–
GRMAGMFWNCGGCMEMDSVC	1.14 ± 0.68	–	–
LRCFYEYGFHKRTKVDSIDT	inactive	–	–
WCYFVRDGVGVGEVTCPRQR	0.273 ± 0.54	–	–

Substance	amyloid nucleation score [1]	amyloid nucleation score [2]	other results
VCSKGACSLGDVNCDSTDVG	0.104 ± 0.63	–	–
KLGCYTL	0.367 ± 0.81	–	–
KFILRYMAWTRVDAVVSKPY	-0.496 ± 0.38	–	–
DCLSSGFLDTLYVVQVRGSD	inactive	–	–
CVMFLGFVYVFSSLYPT	-0.981 ± 0.63	–	–
CDSVV	-0.221 ± 0.73	–	–
NVFSS	–	-0.42 ± 0.35	amyloid nucleation score [3]: inactive
VNIVVILFIVADIKWRRF	–	3.15 ± 0.12	–
DSGRA	–	-0.351 ± 0.63	–
HKKCSRKKFPAPRPSRTNTS	–	-0.605 ± 0.48	–
YDQSICLVRNVIAIYDMGSV	–	6.81 ± 0.084	–
NFPAWCV	–	0.495 ± 0.19	–
FLLSVGSHCMPVHEYGMTNA	–	0.445 ± 0.56	–
SNGTWLKNLGGPPPGRAMPW	–	0.419 ± 0.34	–
SFKYCMMISGGF	–	4.503 ± 0.041	–
FLSRIYESLSTVI	–	inactive	–
VHVYVGQKWSGGVLSLACYK	–	1.09 ± 0.35	–
EFWPKELIRSDDSASFNGMS	–	0.007 ± 1.1	–
QGYLLFN	–	0.467 ± 0.19	–
MHRLPNNIPTGNQLPLQPSE	–	-0.41 ± 0.48	–
DSGLVLNAGIIGSV	–	-1.11 ± 0.49	–

Substance	amyloid nucleation score [1]	amyloid nucleation score [2]	other results
MSSSVHLGIFITQCVKTRQL	–	2.25 ± 0.22	–
LSEGCSLSTSVSMT	–	-0.392 ± 0.44	–
EYHFCTWFRVDIPFVFHDVV	–	-0.072 ± 1.1	–
SMATSSYMLSAMRTCTLRSV	–	-0.231 ± 0.63	–
NFLMV	–	0.75 ± 0.47	–
IYSISVLHCKGDLVYS	–	inactive	–
AEANLNFGLMDGAMSVKRAE	–	-0.329 ± 0.55	–
SQGGIRWY	–	-0.842 ± 0.38	–
ILGLFSFPKMPMVDYNIWMR	–	-0.137 ± 1.1	–
IFANVFANWHVGYLFTGSYY	–	4.02 ± 0.081	–
ANSVNRSKDCTYFVFHRF	–	5.436 ± 0.054	–
VFTILSCWGPYRCVVTRALL	–	inactive	–
FRGITASYEPIGGARMSARE	–	-0.001 ± 0.62	–
VVFNFFCPNHGAVTMFSCFH	–	8.838 ± 0.03	–
LSNCNRMLAGQGGGSRSDWR	–	0.907 ± 0.37	–
ERSCSDIAGYPRPHGVQRNA	–	3.01 ± 0.081	–
IMSSHKSAYRVFLHGLCRMV	–	-0.028 ± 0.74	–
YHVVVMRSVYTVLTYNRVGA	–	0.334 ± 0.65	–
WYKVDFNAWLFCKTIAHIFA	–	-1.1 ± 0.45	–
REFDRNFTPYPSQQELPIWW	–	0.827 ± 0.39	–
KHLMMDCAKRMQLRNIRDES	–	0.216 ± 0.2	–
